# Substitutions are numbered along the chain they refer to. Names and notes keep the numbering of the source.
# T1: circularly permuted human TfR apical domain (human)
# T1 construct: TfR residues 326-379 stand N-terminal to 194-296, loop 297-325 deleted; also called huTfR Apical Domain
# T1 chain: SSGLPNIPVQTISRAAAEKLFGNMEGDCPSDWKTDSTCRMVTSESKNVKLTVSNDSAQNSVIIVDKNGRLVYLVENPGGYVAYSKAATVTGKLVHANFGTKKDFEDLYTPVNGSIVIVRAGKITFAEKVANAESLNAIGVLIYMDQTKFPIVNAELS
# T2: circularly permuted cyno TfR apical domain (cynomolgus monkey)
# T2 construct: same design as the human construct; also called cyTfR Apical Domain; cynomolgus TfR apical domain
# T2 chain: T1 chain with R39K, S45N, N47S, R69G, Y108D, T109S, N153K, E155D
# B1: 6.5.11.1 (Fc fusion)
# chain: APEAAGGPSVFLFPPKPKDTLMISRTPEVTCVVVDVSHEDPEVKFNWYVDGVEVHNAKTKPREEQYNSTYRVVSVLTVLHQDWLNGKEYKCKVSNKALGAPIEKTISKAKGQPREPQVYTLPPSRDELTKNQVSLTCLVKGFYPSDIAVNWFSNGQIENNYKTTPPVLDSDGSFFLYSKLTVDKSRWQQGNLFACEVMHEALHNHYTYKLLSLSPGK
# notes: P329G+LALA
# B2: 42.8.152 (Fc fusion)
# chain: B1 chain with N150E, S153Y, N154D, Q156S, I157K, N159T
# notes: bivalent; P329G+LALA
# B3: 42.8.139 (Fc fusion)
# chain: B1 chain with N150E, S153Y, N154G, G155D, Q156S, I157K
# notes: bivalent; P329G+LALA
# B4: 42.2.1.2 (Fc fusion)
# chain: B1 chain with N150E, S153Y, N154D, G155D, Q156S, I157K, E158L, N159T
# notes: bivalent; P329G+LALA
# B5: 6.5.11.7.122 (Fc fusion)
# chain: B1 chain with N150F, I157R
# notes: bivalent; P329G+LALA
# B6: 42.8.174 (Fc fusion)
# chain: B1 chain with N150E, S153Y, N154D, G155D, I157K, E158L, N159S
# notes: bivalent; P329G+LALA
# B7: 42.8.157 (Fc fusion)
# chain: B1 chain with N150E, S153Y, N154D, G155A, I157K
# notes: bivalent; P329G+LALA
# B8: 42.8.112 (Fc fusion)
# chain: B1 chain with N150E, S153Y, N154G, I157K, E158L
# notes: bivalent; P329G+LALA
# B9: 42.8.94 (Fc fusion)
# chain: B1 chain with N150E, N154E, G155A, Q156S, I157K, E158L
# notes: bivalent; P329G+LALA
# B10: 42.8.16 (Fc fusion)
# chain: B1 chain with N150E, N154G, G155A, I157K, E158L
# notes: bivalent; P329G+LALA
# B11: 42.8.17 (Fc fusion)
# chain: B1 chain with N150E, N154G, G155A, I157K, E158L, N159T
# notes: bivalent; P329G+LALA
# B12: 42.8.114 (Fc fusion)
# chain: B1 chain with N150E, S153Y, N154G, I157K, E158L, N159S
# notes: bivalent; P329G+LALA
# B13: 42.8.156 (Fc fusion)
# chain: B1 chain with N150E, S153Y, N154D, Q156S, I157K, E158L, N159S
# notes: bivalent; P329G+LALA
# B14: 42.8.128 (Fc fusion)
# chain: B1 chain with N150E, S153Y, N154G, G155A, Q156S, I157K, N159T
# notes: bivalent; P329G+LALA
# B15: 6.5.11.5.42 (Fc fusion)
# chain: B1 chain with N150Y, N154G, I157R
# notes: P329G+LALA
# B16: 42.8.77 (Fc fusion)
# chain: B1 chain with N150E, N154E, I157K, E158L, N159T
# notes: bivalent; P329G+LALA
# B17: 42.8.95 (Fc fusion)
# chain: B1 chain with N150E, N154E, G155A, Q156S, I157K, E158L, N159T
# notes: bivalent; P329G+LALA
# B18: 42.8.64 (Fc fusion)
# chain: B1 chain with N150E, N154D, G155D, I157K, E158L
# notes: bivalent; P329G+LALA
# B19: 42.8.55 (Fc fusion)
# chain: B1 chain with N150E, N154D, G155A, Q156S, I157K
# notes: bivalent; P329G+LALA
# B20: 42.8.144 (Fc fusion)
# chain: B1 chain with N150E, S153Y, N154G, G155D, Q156S, I157K, E158L, N159S
# notes: bivalent; P329G+LALA
# B21: 42.8.172 (Fc fusion)
# chain: B1 chain with N150E, S153Y, N154D, G155D, I157K, E158L
# notes: bivalent; P329G+LALA
# B22: 42.8.110 (Fc fusion)
# chain: B1 chain with N150E, S153Y, N154G, I157K, N159T
# notes: bivalent; P329G+LALA
# B23: 42.8.56 (Fc fusion)
# chain: B1 chain with N150E, N154D, G155A, Q156S, I157K, N159T
# notes: bivalent; P329G+LALA
# B24: 42.8.162 (Fc fusion)
# chain: B1 chain with N150E, S153Y, N154D, G155A, I157K, E158L, N159S
# notes: bivalent; P329G+LALA
# B25: 42.8.149 (Fc fusion)
# chain: B1 chain with N150E, S153Y, N154D, I157K, E158L, N159T
# notes: bivalent; P329G+LALA
# B26: 42.8.87 (Fc fusion)
# chain: B1 chain with N150E, N154E, G155A, I157K, N159S
# notes: bivalent; P329G+LALA
# B27: 42.8.96 (Fc fusion)
# chain: B1 chain with N150E, N154E, G155A, Q156S, I157K, E158L, N159S
# notes: bivalent; P329G+LALA
# B28: 42.8.88 (Fc fusion)
# chain: B1 chain with N150E, N154E, G155A, I157K, E158L
# notes: bivalent; P329G+LALA
# B29: 42.8.143 (Fc fusion)
# chain: B1 chain with N150E, S153Y, N154G, G155D, Q156S, I157K, E158L, N159T
# notes: bivalent; P329G+LALA
# B30: 42.8.113 (Fc fusion)
# chain: B1 chain with N150E, S153Y, N154G, I157K, E158L, N159T
# notes: bivalent; P329G+LALA
# B31: 42.8.151 (Fc fusion)
# chain: B1 chain with N150E, S153Y, N154D, Q156S, I157K
# notes: bivalent; P329G+LALA
# B32: 42.8.71 (Fc fusion)
# chain: B1 chain with N150E, N154D, G155D, Q156S, I157K, E158L, N159T
# notes: bivalent; P329G+LALA
# B33: 42.2.3-1H (Fc fusion)
# chain: B1 chain with N150E, S153Y, N154G, G155N, Q156A, I157K, N159T
# notes: P329G+LALA
# B34: 42.8.159 (Fc fusion)
# chain: B1 chain with N150E, S153Y, N154D, G155A, I157K, N159S
# notes: bivalent; P329G+LALA
# B35: 42.8.57 (Fc fusion)
# chain: B1 chain with N150E, N154D, G155A, Q156S, I157K, N159S
# notes: bivalent; P329G+LALA
# B36: 42.8.182 (Fc fusion)
# chain: B1 chain with N150E, S153Y, N154E, I157K, N159T
# notes: bivalent; P329G+LALA
# B37: 42.8.173 (Fc fusion)
# chain: B1 chain with N150E, S153Y, N154D, G155D, I157K, E158L, N159T
# notes: bivalent; P329G+LALA
# B38: 42.8.175 (Fc fusion)
# chain: B1 chain with N150E, S153Y, N154D, G155D, Q156S, I157K
# notes: bivalent; P329G+LALA
# B39: 42.8.127 (Fc fusion)
# chain: B1 chain with N150E, S153Y, N154G, G155A, Q156S, I157K
# notes: bivalent; P329G+LALA
# B40: 42.8.163 (Fc fusion)
# chain: B1 chain with N150E, S153Y, N154D, G155A, Q156S, I157K
# notes: bivalent; P329G+LALA
# B41: 42.8.150 (Fc fusion)
# chain: B1 chain with N150E, S153Y, N154D, I157K, E158L, N159S
# notes: bivalent; P329G+LALA
# B42: 42.8.63 (Fc fusion)
# chain: B1 chain with N150E, N154D, G155D, I157K, N159S
# notes: bivalent; P329G+LALA
# B43: 42.8.99 (Fc fusion)
# chain: B1 chain with N150E, N154E, G155D, I157K, N159S
# notes: bivalent; P329G+LALA
# B44: 42.8.153 (Fc fusion)
# chain: B1 chain with N150E, S153Y, N154D, Q156S, I157K, N159S
# notes: bivalent; P329G+LALA
# B45: 42.8.166 (Fc fusion)
# chain: B1 chain with N150E, S153Y, N154D, G155A, Q156S, I157K, E158L
# notes: bivalent; P329G+LALA
# B46: 42.8.181 (Fc fusion)
# chain: B1 chain with N150E, S153Y, N154E, I157K
# notes: bivalent; P329G+LALA
# B47: 42.8.167 (Fc fusion)
# chain: B1 chain with N150E, S153Y, N154D, G155A, Q156S, I157K, E158L, N159T
# notes: bivalent; P329G+LALA
# B48: 42.8.137 (Fc fusion)
# chain: B1 chain with N150E, S153Y, N154G, G155D, I157K, E158L, N159T
# notes: bivalent; P329G+LALA
# B49: 42.8.168 (Fc fusion)
# chain: B1 chain with N150E, S153Y, N154D, G155A, Q156S, I157K, E158L, N159S
# notes: bivalent; P329G+LALA
# B50: 42.8.109 (Fc fusion)
# chain: B1 chain with N150E, S153Y, N154G, I157K
# notes: bivalent; P329G+LALA
# B51: 42.8.118 (Fc fusion)
# chain: B1 chain with N150E, S153Y, N154G, Q156S, I157K, E158L
# notes: bivalent; P329G+LALA
# Molecular target: T1, circularly permuted human TfR apical …
# Assay: SPR, supernatant, anti-Fab capture
# Description: (§1) Clones were expressed in HEK293 cells. Supernatants were captured for SPR by GE Healthcare anti-human Fab capture kit and the affinity to human and cyno TfR apical domain was measured (Table 30). The clones in Table 30 were bivalent and each TfR-binding Fc polypeptide also contained P329G and LALA mutations.
row,Kd [µM],Binder
1,10,B1
2,1.02,B2
3,0.85,B3
4,0.507,B4
5,4.6,B5
6,0.726,B6
7,2.1,B7
8,1.14,B8
9,4.07,B9
10,7.81,B10
11,10.4,B11
12,1.81,B12
13,1.39,B13
14,0.654,B14
15,2,B15
16,8.1,B16
17,4.13,B17
18,5.69,B18
19,6.16,B19
20,0.47,B20
21,0.795,B21
22,1.76,B22
23,4.83,B23
24,1.19,B24
25,2.38,B25
26,1.66,B26

row,Kd [µM],Binder
1,9.44,B27
2,9.16,B28
3,0.454,B29
4,1.61,B30
5,1.51,B31
6,3,B32
7,0.22,B33
8,1.32,B34
9,4.9,B35
10,2.29,B36
11,0.603,B37
12,1.05,B38
13,0.633,B39
14,1.38,B40
15,2.65,B41
16,4.19,B42
17,6.38,B43
18,1.84,B44
19,0.855,B45
20,2.78,B46
21,0.502,B47
22,1.18,B48
23,0.531,B49
24,2.02,B50
25,0.867,B51

# Molecular target: T2, circularly permuted cyno TfR apical …
# Assay: SPR, supernatant, anti-Fab capture
# Description: as §1
row,Kd [µM],Binder
1,10.9,B2
2,6.1,B3
3,9.14,B4
4,7.78,B6
5,15.5,B7
6,13.3,B8
7,22.2,B9
8,18.3,B12
9,13.3,B13
10,5.45,B14
11,23.1,B17
12,3.87,B20
13,15.8,B22
14,28.4,B23
15,23.2,B24
16,16,B25
17,21.9,B27
18,5.18,B29
19,34.3,B30

row,Kd [µM],Binder
1,13.1,B31
2,12.9,B32
3,2,B33
4,10.8,B34
5,14.4,B36
6,6.72,B37
7,15.8,B38
8,3.04,B39
9,7.82,B40
10,11.8,B41
11,4.94,B42
12,14.5,B44
13,5,B45
14,12.1,B46
15,6.59,B47
16,12.6,B48
17,5.7,B49
18,13.6,B50
19,4.29,B51
